Target: human PD-L1 on PD-L1 aAPC/CHO-K1 cells (human) (UniProt Q9NZQ7)
Sequence (Q9NZQ7 19-290): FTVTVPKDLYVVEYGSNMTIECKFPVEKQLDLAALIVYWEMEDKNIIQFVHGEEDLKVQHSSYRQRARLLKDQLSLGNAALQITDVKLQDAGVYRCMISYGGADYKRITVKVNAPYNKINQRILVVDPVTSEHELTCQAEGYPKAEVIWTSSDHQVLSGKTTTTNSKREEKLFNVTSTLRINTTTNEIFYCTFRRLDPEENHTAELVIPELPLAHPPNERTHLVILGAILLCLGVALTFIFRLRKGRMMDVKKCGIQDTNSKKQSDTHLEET

- EC50 (read off the curve), fold induction, PD1/PD-L1 blockade cell bioassay: 0.5 nM
Substance: Atezolizumab (antibody)
